{"source": "paper doi:10.64898/2025.12.30.697132", "about": "“Explaining how mutations affect AlphaFold predictions” (bioRxiv, 2025)", "proteins": {"B1": {"name": "Human XCL1(1-72) (domain or fragment, UniProt P47992 22-93, looked up)", "chain": "VGSEVSDKRTCVSLTTQRLPVSRIKTYTITEGSLRAVIFITKRGLKVCADPQATWVRDVVRSMDRKSNTRNN", "modifications": "4-fluorophenylalanine, presumed at F39 (single fluorine atom verified by electrospray mass spectrometry)", "notes": "XCL1, human, residues 1-72, lacks the disordered C-terminal tail (residues 73-93); The protein exchanges between a monomeric chemokine fold and a dimeric beta-sheet fold; also called hXCL1(1-72); wildtype XCL1"}}, "biological_target": "the molecule itself", "experiment": "19F NMR; 4-F-Phe labelled hXCL1(1-72) at 100 uM in 20 mM NaPO4, 50 mM NaCl, pH 6.5, 35 °C; populations of the dimer fold and the monomeric chemokine fold", "data": [{"protein": "B1", "values": [{"measurement": "percent of the protein in the dimer fold", "result": 77, "unit": "%"}]}]}
